Assays:
[1] = biological target: sdAb c7b; assay: ELISA; table printed under the ELISA plot; legend values suggest HEK-293 cells
[2] = biological target: T1, recombinant human NKG2D/Fc chimera (R&D Systems) (human, UniProt P26718 78-216); assay: as above
T1 chain: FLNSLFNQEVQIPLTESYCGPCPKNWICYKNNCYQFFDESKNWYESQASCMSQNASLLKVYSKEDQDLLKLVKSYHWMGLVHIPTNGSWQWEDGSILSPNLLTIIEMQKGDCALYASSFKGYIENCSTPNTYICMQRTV

[3] = biological target: T2, NKG2D on HEK-293T cells co-transfected with NKG2D and DAP10 (UniProt P26718 1-216); assay: flow cytometry; table printed under the HEK-293 plot; legend values suggest ELISA
T2 chain: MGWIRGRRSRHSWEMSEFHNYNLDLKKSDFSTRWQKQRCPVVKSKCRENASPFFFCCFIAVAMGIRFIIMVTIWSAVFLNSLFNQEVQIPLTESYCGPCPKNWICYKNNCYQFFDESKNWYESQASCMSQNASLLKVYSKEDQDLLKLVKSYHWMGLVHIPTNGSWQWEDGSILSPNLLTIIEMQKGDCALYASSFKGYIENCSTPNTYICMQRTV

[4] = biological target: bsfAb ET1F8; assay: flow cytometry
[5] = biological target: bsfAb ET2F9; assay: flow cytometry

B1: Fc-NKG2D (Fc fusion)
chain: T1 chain
- Kd [1]: 6.07 nM

B2: sdAb ET2F9 (VHH)
VHH: QVQLVQSGGGLVQPGGSLRLSCAASGFTFDDYAMSWVRQAPGKGLEWVSAISWSGRTTYYAESMKGRFTTSRDNAKNTLYLQMNSLKPEDTALYYCARGDVAIRGNLDAWGQGTQVTVSS
- Kd [2]: 1710 nM
- Kd [3]: 41.1 nM

B3: transfected HEK-293 (receptor)
chain: T2 chain
- Kd [4]: 32.5 nM
- Kd [5]: 33.2 nM

From patent publication US20180327499A1 (published 2018)
